From patent publication CN113735970A (INST MILITARY MEDICINE ACADEMY MILITARY SCIENCES PLA, dated 2021) come the findings set out here.

The target of one assay is SARS-CoV-2 WT RBD蛋白 (SARS-CoV-2, UniProt P0DTC2 319-541).
In a further assay the target is SARS-CoV-2 WT S-ECD蛋白 (SARS-CoV-2, UniProt P0DTC2 14-1213).

B1: 抗SARS-CoV-2全人源单克隆抗体ZWC6 (antibody, human IgG1, kappa, V domains shown)
VH: EVQLVESGGGVVQPGTSLRLSCAASGFSFSHYVMYWVRQAPGKGLDWVAIISFDGSSQYYADSVKGRFTISRDNSKDTLYLQMHSLRPEDTAVYYCAIHGGTYYYDKNILAWGQGTLVTVSS
VL: AIRMTQSPPTLSLSPGERATLSCRASQSVTNYLVWYQQKPGQAPRLLIYDTFNRATGIPARFSGSGSGTDFTLTISSLEPEDFAVYYCQQRSNWPPTFGQGTKVDIKR
The term Kd denotes the constant that tells how readily two partners part at equilibrium. Higher therefore signals a looser complex. The term koff denotes the first-order rate constant of dissociation. The low end stands for a long-lived complex, the high end for a short-lived complex. For orientation: kon means a measure of how fast the partners come together. Higher therefore signals fast association. B1: in the assay with SARS-CoV-2 WT RBD蛋白, the Kd was determined as 0.683 nM, the koff is 0.000365 s⁻¹ and the kon was found to be 535000 M⁻¹ s⁻¹. For the same molecule, in the assay with SARS-CoV-2 WT S-ECD蛋白, the Kd turned out to be 1.49 nM, the dissociation rate constant (koff) was 0.000255 s⁻¹ and the kon is 171000 M⁻¹ s⁻¹.
